Experimental data: patent publication US20250154500A1 (SEOUL NATIONAL UNIVERSITY R AND DB FOUNDATION, published 2025)
Values belong to the binder of their own block, whether it stands above or below them.

Molecular target: T1, FLAG-tagged ZCCHC2 ΔN (201-1,178 a.a) (human, UniProt Q9C0B9 201-1178)
T1 construct: Transiently expressed in HeLa ZCCHC2 knockout cells; also called pCK-Flag-ZCCHC2 (201-1178); not shown: FLAG tag and any linker to it; The plasmid name pCK-Flag-ZCCHC2 puts the tag at the N-terminus
Test: anti-FLAG co-immunoprecipitation from HeLa ZCCHC2 KO cells, western blot
Description: Data are normalized against the value of the wild-type sample and represented as mean±SEM (n=3). * indicates p<0.05, with a two-sided Student's t-test performed. […] Full-length ZCCHC2 protein and its truncated mutants (ΔC, ΔN) were compared for their ability to interact with TENT4 proteins. TENT4A and GAPDH were detected on the same gel, whereas the other proteins were analyzed on separate gels with the same amounts of samples. Cross-reacting bands are indicated by asterisks.
For co-IP experiment, parental cells and TENT4 dKO cells on a 150 μl plate were lysed on ice for 20 minutes using Buffer A (100 mM KCl, 0.1 mM EDTA, 20 mM HEPES [pH 7.5], 0.4% NP-40, 10% glycerol) containing 1 mM DL-Dithiothreitol (DTT), 1× protease inhibitor, and RNase A (Thermo, EN0531), and then centrifuged. For immunoprecipitation, 12.5 μg of antibody (NMG, anti-TENT4A, and anti-TENT4B) conjugated to protein A and G sepharose beads (1:1 mixture, total 20 μl) was used with 1 mg of the lysates. After incubation at 4° C. for 2 hours, the beads were washed, boiled in 20 μl of 2×SDS buffer, and loaded onto a 4-12% (Novex) SDS-PAGE gel with the ladder (Thermo, 26616 and 26619). For domain co-IP experiment, full-length ZCCHC2, truncated construct of ZCCHC2, and negative construct having FLAG tag were transfected in ZCCHC2KO cells, and the cells were lysed within 2 days. […]

T1 sequence (Q9C0B9 201-1178 limits assumed, stated change not applied): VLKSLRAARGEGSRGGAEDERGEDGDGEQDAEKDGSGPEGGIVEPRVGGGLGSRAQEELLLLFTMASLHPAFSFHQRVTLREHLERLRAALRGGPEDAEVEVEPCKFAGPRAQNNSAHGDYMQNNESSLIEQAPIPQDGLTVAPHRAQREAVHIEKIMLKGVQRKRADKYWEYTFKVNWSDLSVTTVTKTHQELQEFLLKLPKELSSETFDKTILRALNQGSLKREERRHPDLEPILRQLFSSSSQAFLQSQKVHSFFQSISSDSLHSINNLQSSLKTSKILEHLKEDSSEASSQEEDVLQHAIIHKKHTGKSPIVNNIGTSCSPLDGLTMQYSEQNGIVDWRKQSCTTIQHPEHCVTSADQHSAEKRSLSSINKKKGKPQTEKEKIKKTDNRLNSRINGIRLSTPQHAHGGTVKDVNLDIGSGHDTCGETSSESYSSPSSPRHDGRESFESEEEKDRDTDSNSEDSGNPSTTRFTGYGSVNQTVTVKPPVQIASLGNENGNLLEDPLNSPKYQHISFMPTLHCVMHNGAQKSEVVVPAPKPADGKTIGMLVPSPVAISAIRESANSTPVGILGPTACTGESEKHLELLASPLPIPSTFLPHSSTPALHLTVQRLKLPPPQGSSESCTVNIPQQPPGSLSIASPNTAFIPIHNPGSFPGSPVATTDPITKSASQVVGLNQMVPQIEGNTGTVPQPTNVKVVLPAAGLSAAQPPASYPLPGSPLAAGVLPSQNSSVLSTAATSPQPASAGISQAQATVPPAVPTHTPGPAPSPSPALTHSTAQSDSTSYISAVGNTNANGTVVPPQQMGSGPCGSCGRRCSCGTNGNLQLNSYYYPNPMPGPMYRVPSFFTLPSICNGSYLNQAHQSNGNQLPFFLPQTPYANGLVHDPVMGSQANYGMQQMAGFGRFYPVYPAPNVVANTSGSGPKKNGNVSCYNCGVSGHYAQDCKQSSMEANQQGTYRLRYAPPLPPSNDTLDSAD

binding result: no binding
B1: TENT4B (enzyme, human, UniProt Q8NDF8 1-572, looked up)
chain: MYRSGERLLGSHALPAEQRDFLPLETTNNNNNHHQPGAWARRAGSSASSPPSASSSPHPSAAVPAADPADSASGSSNKRKRDNKASGGRAAGGGRADGGGVVYSGTPWKRRNYNQGVVGLHEEISDFYEYMSPRPEEEKMRMEVVNRIESVIKELWPSADVQIFGSFKTGLYLPTSDIDLVVFGKWENLPLWTLEEALRKHKVADEDSVKVLDKATVPIIKLTDSFTEVKVDISFNVQNGVRAADLIKDFTKKYPVLPYLVLVLKQFLLQRDLNEVFTGGIGSYSLFLMAVSFLQLHPREDACIPNTNYGVLLIEFFELYGRHFNYLKTGIRIKDGGSYVAKDEVQKNMLDGYRPSMLYIEDPLQPGNDVGRSSYGAMQVKQAFDYAYVVLSHAVSPIAKYYPNNETESILGRIIRVTDEVATYRDWISKQWGLKNRPEPSCNGPVSSSSATQSSSSDVDSDATPCKTPKQLLCRPSTGNRVGSQDVSLESSQAVGKMQSTQTTNTSNSTNKSQHGSARLFRSSSKGFQGTTQTSHGSLMTNKQHQGKSNNQYYHGKKRKHKRDAPLSDLCR
notes: Endogenous protein of HeLa (human) cells; also called PAPD5; TRF4-2

binding result: no binding
B2: TENT4A (enzyme, human, UniProt Q5XG87 1-792, looked up)
chain: MDPRVAWIQPEQKGPANALWMQIWETSQGVGRGGSGFASYFCLNSPALDTAAAAGAAGRGSGGLGPALPAASPPPPGPTAPAALPPALLTALGPAAEGARRLHKSPSLSSSSSSSSSNAESGTESPGCSSSSSSSASLGRPGGGRGGAFFNFADGAPSAPGTANGHPGPRGPAPAGSPSQHQFHPGRRKRENKASTYGLNYLLSGSRAAALSGGGGPGAQAPRPGTPWKSRAYSPGIQGLHEEIIDFYNFMSPCPEEAAMRREVVKRIETVVKDLWPTADVQIFGSFSTGLYLPTSDIDLVVFGKWERPPLQLLEQALRKHNVAEPCSIKVLDKATVPIIKLTDQETEVKVDISFNMETGVRAAEFIKNYMKKYSLLPYLILVLKQFLLQRDLNEVFTGGISSYSLILMAISFLQLHPRIDARRADENLGMLLVEFFELYGRNFNYLKTGIRIKEGGAYIAKEEIMKAMTSGYRPSMLCIEDPLLPGNDVGRSSYGAMQVKQVFDYAYIVLSHAVSPLARSYPNRDAESTLGRIIKVTQEVIDYRRWIKEKWGSKAHPSPGMDSRIKIKERIATCNGEQTQNREPESPYGQRLTLSLSSPQLLSSGSSASSVSSLSGSDVDSDTPPCTTPSVYQFSLQAPAPLMAGLPTALPMPSGKPQPTTSRTLIMTTNNQTRFTIPPPTLGVAPVPCRQAGVEGTASLKAVHHMSSPAIPSASPNPLSSPHLYHKQHNGMKLSMKGSHGHTQGGGYSSVGSGGVRPPVGNRGHHQYNRTGWRRKKHTHTRDSLPVSLSR
notes: Endogenous protein of HeLa (human) cells; also called PAPD7; TRF4-1
